Laboratory results taken from patent US20200040057A1 (IMMATICS BIOTECHNOLOGIES, published 2020).

Target: HLA-B*07 (human)
Assay: UV peptide exchange ELISA; ++++ = yield >75%

| peptide exchange yield [%] | Binder |
| --- | --- |
| > 75 | QPSLVQAIF |
| > 75 | SPSGQRDVSL |
| > 75 | RAAGRRLQL |
| > 75 | KPKAVKPKAA |
| > 75 | MPVSAFTVI |
| > 75 | HPRWIEPTVM |
| > 75 | RPYQDAPVA |
| > 75 | MPYVVLTAL |
| > 75 | QPVHSLCSA |
| > 75 | RVIQGTTTL |
| > 75 | APEGKRLGF |
| > 75 | SPTRGSEF |
| > 75 | MPVDSFNSM |
| > 75 | RPVLTASSF |
| > 75 | QPTWNTQTRL |
| > 75 | LPRAFLQSL |
| > 75 | GPVPSPLAL |
| > 75 | RPQPGWRESL |
| > 75 | NVNPARKGL |
| > 75 | RPRSLQCVSL |
| > 75 | RPPPPCIAL |
| > 75 | NPRSPPATM |
| > 75 | APLPRPGAV |
| > 75 | QPLDICHSF |

Continued, binder first:

| Binder | peptide exchange yield [%] |
| --- | --- |
| LVQSSRSEV | > 75 |
| KPRTPFTTAQLL | > 75 |
| LPRAGGAFLM | > 75 |
| RPVWDVRSA | > 75 |
| RPSKEMQVTI | > 75 |
| RPILKEQSSSSF | > 75 |
| KPGFNISIL | > 75 |
| SPIIHSILL | > 75 |
| FPYDKPLIM | > 75 |
| SPVPSHWMVAL | > 75 |
| RPVTGSVC | > 75 |
| RPDSRLLEL | > 75 |
| VPKPAIPSSSVL | > 75 |
| YPSSPASAV | > 75 |
| QPQCSTHIL | > 75 |
| DVIDDIISL | > 75 |
| IPHQRSSL | > 75 |
| SPAAPLSPASSL | > 75 |
| RPTHPLRSF | > 75 |
| VPYAAQAAL | > 75 |
| RPFSVSSISQL | > 75 |
| APPPPPPPF | > 75 |
| TPFPDIHWF | > 75 |
| SPIPRPLFL | > 75 |
| SPMEAELVRRIL | > 75 |
| RLRDYISSL | > 75 |

| Binder | peptide exchange yield [%] |
| --- | --- |
| LPIARVLTV | > 75 |
| QPDHAGIFRVF | > 75 |
| LPRAGGAF | > 75 |
| RPSAPRGPP | > 75 |
| APARPAAAF | > 75 |
| FPCSALLACF | > 75 |
| LPSLSHCSQL | > 75 |
| LPRLPVGSLV | > 75 |
| SPITLQAL | > 75 |
| LPNTGRIGQLL | > 75 |
| LPLNSSTSL | > 75 |
| KPYEGRVEI | > 75 |
| AVRLPTPNL | > 75 |
| RPRYETGVCA | > 75 |
| RPDVVRTLL | > 75 |
| FPAPPAHWF | > 75 |
| SPFSGGPVSF | > 75 |
| LPALKEEAF | > 75 |
| KPHLDRRGAVI | > 75 |
| VPSHWMVAL | > 75 |
| SPLLMQRTL | > 75 |
| MPVDSFNSML | > 75 |
| IPVTSSVTL | > 75 |
| VPMPGVQAV | > 75 |
| SPSTSRTPLLSSL | > 75 |
